Substitutions are numbered along the chain they refer to.

One assay addresses T1, WT TRPC6 (Homo sapiens, UniProt Q9Y210).
T1 construct: expressed in transfected cells; host or cells: HEK 293
T1 sequence (Q9Y210 1-931): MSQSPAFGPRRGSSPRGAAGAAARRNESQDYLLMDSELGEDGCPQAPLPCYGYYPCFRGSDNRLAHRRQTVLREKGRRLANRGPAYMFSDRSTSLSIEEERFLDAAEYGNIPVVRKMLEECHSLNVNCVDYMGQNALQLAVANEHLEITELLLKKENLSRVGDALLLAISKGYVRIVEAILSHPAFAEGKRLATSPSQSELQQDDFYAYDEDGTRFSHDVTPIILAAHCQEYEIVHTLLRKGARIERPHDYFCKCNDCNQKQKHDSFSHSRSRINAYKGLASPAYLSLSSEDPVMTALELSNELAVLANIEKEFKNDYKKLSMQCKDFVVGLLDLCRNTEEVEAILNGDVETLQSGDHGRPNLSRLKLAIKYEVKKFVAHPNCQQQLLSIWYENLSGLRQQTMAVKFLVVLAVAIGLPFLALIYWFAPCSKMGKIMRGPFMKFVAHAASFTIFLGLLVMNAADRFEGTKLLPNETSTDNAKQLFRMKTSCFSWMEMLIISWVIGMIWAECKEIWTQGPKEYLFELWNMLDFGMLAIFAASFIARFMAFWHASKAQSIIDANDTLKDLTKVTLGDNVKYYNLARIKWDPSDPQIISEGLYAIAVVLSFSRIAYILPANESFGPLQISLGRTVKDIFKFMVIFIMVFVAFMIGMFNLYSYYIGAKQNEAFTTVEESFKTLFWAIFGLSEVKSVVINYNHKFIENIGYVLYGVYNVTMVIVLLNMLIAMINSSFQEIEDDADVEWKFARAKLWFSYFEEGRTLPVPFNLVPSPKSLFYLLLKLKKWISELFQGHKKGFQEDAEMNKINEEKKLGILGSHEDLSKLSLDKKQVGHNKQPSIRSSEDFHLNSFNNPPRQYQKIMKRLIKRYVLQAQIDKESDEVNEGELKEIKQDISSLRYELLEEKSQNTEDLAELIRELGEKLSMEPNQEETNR
As to the kind of experiment: Fura-2 single cell imaging of divalent cations in HEK 293 cells transfected with WT TRPC6. It is filed as cell-based. From the text:
(§1) To determine the effect of the P112Q mutation on TRPC6 function, we studied HEK 293 cells (human kidney cells) transfected with mutant (TRPC6^P112Q) or wild-type (WT) TRPC6 (14). The WT TRPC6 was cloned from a human kidney cDNA library. […] Diacylglycerol (DAG) is a potent activator of TRPC6 (15). We therefore measured the intracellular calcium concentration ([Ca^+2]i) using Fura fluorescence in HEK 293 cells expressing either the WT or TRPC6^P112Q after exposure to the DAG analogue OAG (1-oleoyl-2-acetyl-sn-glycerol). OAG perfusion increased late Ca^+2 transients in cells transfected with WT TRPC6 as expected (FIG. 3A and FIG. 7).
(§2) Angiotensin II acting through its AT1 receptor plays a critical role in the generation of proteinuria and progression of kidney injury in a number of kidney diseases including FSGS (16). AT1 receptors, coupled to heterotrimeric G nucleotide-binding proteins, activate phospholipase C-beta isoforms that hydrolyze phosphatidylinositol 4,5-bisphosphate (PIP2). This triggers production of inositol 1,4,5-trisphosphate (InsP3) and diacylglycerol (DAG) releases internal calcium stores and activates Ca^+2 entry, respectively (17). We examined whether the P112Q mutation would affect angiotensin II-dependent (i.e., receptor-operated) calcium signaling. HEK 293 cells were co-transfected with the AT1 angiotensin receptor (AT-YFP) and either WT TRPC6 or TRPC6^P112Q. [Ca^+2]i changes were measured after exposure to angiotensin II (FIG. 3B and FIG. 8); similar to the OAG experiments, the peak angiotensin II-stimulated [Ca^+2]i was higher in cells expressing the mutant protein compared with WT controls ([Ca^2+]i TRPC6^P112Q=640±66 nM vs. [Ca^2+]i WT TRPC6=357±46 nM; p<0.05). To establish that the P112Q mutation is not isolated to TRPC6 channels, we introduced the analogous mutation into the TRPC3 channel.
(§3) HEK 293 cells were plated on glass bottom plates at near confluence. After 24 hours, the cells were transfected with plasmids in the presence of lipofectamine 2000 (Invitrogen). Here 3 μg of TRPC6 plasmid (WT or mutant) and 1 μg of ATR-YFP plasmid were incubated for 4 hours in Optimem 2000 media (Gibco) and then changed to 10% FBS/DMEM media. For biotinylation experiments, 24 hours after transfection with TRPC6-V5 and TRPC6^P112Q-V5 constructs, cells were washed with ice cold PBS and incubated with sulfo-NHS-SS-Biotin (2 mg/ml) (Pierce) for 30-min at 4° C. After 3 washes with PBS with 10 mM glycine, cells were incubated with RIPA lysis buffer for 30-min at 4° C. Lysates were passed through a 20 G and then 25 G needle for 25 passes. Samples were then collected by centrifuging at 20K G for 15-min at 4° C. Supernatants were then incubated overnight with streptavidin agaraose beads (Pierce), washed 3 times and then heated to 37° C. […]

Another assay has as its target T2, TRPC6^P112Q (Homo sapiens, UniProt Q9Y210, P112Q).
T2 construct: expressed in transfected cells; host or cells: HEK 293
T2 sequence (Q9Y210 1-931 P112Q): T1 sequence (Q9Y210 1-931) with P112Q
The assay is described as follows: Fura-2 single cell imaging of divalent cations in HEK 293 cells transfected with TRPC6^P112Q. It is filed as cell-based.
Source text: as §1, §2, §3

For “angiotensin II: ligand acting through its AT1 receptor, used to stimulate receptor-operated calcium signaling (DRVYIHPF; Angiotensin-2; UniProt P01019 25-32, looked up)”, the “Peak angiotensin II-stimulated [Ca2+]i” value with WT TRPC6 (HEK 293 cells co-transfected with AT1 receptor (AT-YFP) and WT TRPC6, angiotensin II 1 μM) worked out at 357 ± 46 nM; with TRPC6^P112Q (HEK 293 cells co-transfected with AT1 receptor (AT-YFP) and TRPC6^P112Q, angiotensin II 1 μM), 640 ± 66 nM. The “Duration of angiotensin II-induced barium signal” value with WT TRPC6 (HEK 293 cells co-transfected with AT1 receptor and WT TRPC6) was found to be 271 ± 121 s; in the assay with TRPC6^P112Q (HEK 293 cells co-transfected with AT1 receptor and TRPC6^P112Q) it was 1054 ± 282 s.
For `CCCCCCCC/C=C\CCCCCCCC(=O)OC[C@H](CO)OC(C)=O` [OAG, 1-oleoyl-2-acetyl-sn-glycerol], the “Peak intracellular calcium concentration [Ca2+]i after OAG perfusion” value on WT TRPC6 (HEK 293 cells transfected with WT TRPC6, 100 μM OAG, Fura fluorescence) came out at 106 ± 15 nM; at TRPC6^P112Q (HEK 293 cells transfected with TRPC6^P112Q, 100 μM OAG, Fura fluorescence) it was 181 ± 25 nM. In addition, the “OAG-stimulated barium transients, ratio” value on WT TRPC6 (HEK293 cells transfected with WT TRPC6, Fura-2, barium as surrogate for calcium) was determined as 0.49±0.18. Besides, the “OAG-stimulated barium transients, 4340/380 ratio” value on TRPC6^P112Q (HEK293 cells transfected with TRPC6P112Q, Fura-2, barium as surrogate for calcium) was found to be 1.30±0.7.

For the origin of these results see patent publication US11035003B2, “TRPC6 involved in glomerulonephritis” (Duke University, priority 2005, dated 2021).
